Test results: patent CN101300273A

Tests used:
人肿瘤细胞上的TR-2 (human) [1] = target: 人肿瘤细胞上的TR-2 (human) (UniProt O14763); assay: cell-based assay, 10 μg/ml M412, anti-mouse IgG Fc-HRP, isotype control subtracted; breast cancer line HS 578.T
人肿瘤细胞上的TR-2 (human) [2] = target: 人肿瘤细胞上的TR-2 (human) (UniProt O14763); assay: cell-based assay, 10 μg/ml M412, anti-mouse IgG Fc-HRP, isotype control subtracted; ovarian cancer line IGROV1
人肿瘤细胞上的TR-2 (human) [3] = target: 人肿瘤细胞上的TR-2 (human) (UniProt O14763); assay: cell-based assay, 10 μg/ml M412, anti-mouse IgG Fc-HRP, isotype control subtracted; lung cancer line A549
人肿瘤细胞上的TR-2 (human) [4] = target: 人肿瘤细胞上的TR-2 (human) (UniProt O14763); assay: cell-based assay, 10 μg/ml M412, anti-mouse IgG Fc-HRP, isotype control subtracted; melanoma line UACC-62
人肿瘤细胞上的TR-2 (human) [5] = target: 人肿瘤细胞上的TR-2 (human) (UniProt O14763); assay: cell-based assay, 10 μg/ml M412, anti-mouse IgG Fc-HRP, isotype control subtracted; non-small cell lung cancer line HOP-62 (first mention)
人肿瘤细胞上的TR-2 (human) [6] = target: 人肿瘤细胞上的TR-2 (human) (UniProt O14763); assay: cell-based assay, 10 μg/ml M412, anti-mouse IgG Fc-HRP, isotype control subtracted; line A 673 (listed under leukemia)
人肿瘤细胞上的TR-2 (human) [7] = target: 人肿瘤细胞上的TR-2 (human) (UniProt O14763); assay: cell-based assay, 10 μg/ml M412, anti-mouse IgG Fc-HRP, isotype control subtracted; colon cancer line KM-12
人肿瘤细胞上的TR-2 (human) [8] = target: 人肿瘤细胞上的TR-2 (human) (UniProt O14763); assay: cell-based assay, 10 μg/ml M412, anti-mouse IgG Fc-HRP, isotype control subtracted; melanoma line RPMI 7951
人肿瘤细胞上的TR-2 (human) [9] = target: 人肿瘤细胞上的TR-2 (human) (UniProt O14763); assay: cell-based assay, 10 μg/ml M412, anti-mouse IgG Fc-HRP, isotype control subtracted; colon cancer line HCT-116
人肿瘤细胞上的TR-2 (human) [10] = target: 人肿瘤细胞上的TR-2 (human) (UniProt O14763); assay: cell-based assay, 10 μg/ml M412, anti-mouse IgG Fc-HRP, isotype control subtracted; liver cancer line NCI-SNU-1
人肿瘤细胞上的TR-2 (human) [11] = target: 人肿瘤细胞上的TR-2 (human) (UniProt O14763); assay: cell-based assay, 10 μg/ml M412, anti-mouse IgG Fc-HRP, isotype control subtracted; prostate cancer line 22Rv1
人肿瘤细胞上的TR-2 (human) [12] = target: 人肿瘤细胞上的TR-2 (human) (UniProt O14763); assay: cell-based assay, 10 μg/ml M412, anti-mouse IgG Fc-HRP, isotype control subtracted; non-small cell lung cancer line NCI-H460
人肿瘤细胞上的TR-2 (human) [13] = target: 人肿瘤细胞上的TR-2 (human) (UniProt O14763); assay: cell-based assay, 10 μg/ml M412, anti-mouse IgG Fc-HRP, isotype control subtracted; non-small cell lung cancer line HOP-62 (second mention)
人肿瘤细胞上的TR-2 (human) [14] = target: 人肿瘤细胞上的TR-2 (human) (UniProt O14763); assay: cell-based assay, 10 μg/ml M412, anti-mouse IgG Fc-HRP, isotype control subtracted; kidney cancer line UO-31
人肿瘤细胞上的TR-2 (human) [15] = target: 人肿瘤细胞上的TR-2 (human) (UniProt O14763); assay: cell-based assay, 10 μg/ml M412, anti-mouse IgG Fc-HRP, isotype control subtracted; colon cancer line HCC-2998
人肿瘤细胞上的TR-2 (human) [16] = target: 人肿瘤细胞上的TR-2 (human) (UniProt O14763); assay: cell-based assay, 10 μg/ml M412, anti-mouse IgG Fc-HRP, isotype control subtracted; breast cancer line T-47D
人肿瘤细胞上的TR-2 (human) [17] = target: 人肿瘤细胞上的TR-2 (human) (UniProt O14763); assay: cell-based assay, 10 μg/ml M412, anti-mouse IgG Fc-HRP, isotype control subtracted; prostate cancer line LNCaP
人肿瘤细胞上的TR-2 (human) [18] = target: 人肿瘤细胞上的TR-2 (human) (UniProt O14763); assay: cell-based or functional assay
人肿瘤细胞上的TR-2 (human) [19] = target: 人肿瘤细胞上的TR-2 (human) (UniProt O14763); assay: cell-based assay, 10 μg/ml M412, anti-mouse IgG Fc-HRP, isotype control subtracted; non-small cell lung cancer line NCI-H2126
人肿瘤细胞上的TR-2 (human) [20] = target: 人肿瘤细胞上的TR-2 (human) (UniProt O14763); assay: cell-based assay, 10 μg/ml M412, anti-mouse IgG Fc-HRP, isotype control subtracted; colon cancer line SW-948
人肿瘤细胞上的TR-2 (human) [21] = target: 人肿瘤细胞上的TR-2 (human) (UniProt O14763); assay: cell-based assay, 10 μg/ml M412, anti-mouse IgG Fc-HRP, isotype control subtracted; colon cancer line SW-707
人肿瘤细胞上的TR-2 (human) [22] = target: 人肿瘤细胞上的TR-2 (human) (UniProt O14763); assay: cell-based assay, 10 μg/ml M412, anti-mouse IgG Fc-HRP, isotype control subtracted; melanoma line LOX IMVI
人肿瘤细胞上的TR-2 (human) [23] = target: 人肿瘤细胞上的TR-2 (human) (UniProt O14763); assay: cell-based assay, 10 μg/ml M412, anti-mouse IgG Fc-HRP, isotype control subtracted; kidney cancer line Caki-2
人肿瘤细胞上的TR-2 (human) [24] = target: 人肿瘤细胞上的TR-2 (human) (UniProt O14763); assay: cell-based assay, 10 μg/ml M412, anti-mouse IgG Fc-HRP, isotype control subtracted; kidney cancer line Caki-1
人肿瘤细胞上的TR-2 (human) [25] = target: 人肿瘤细胞上的TR-2 (human) (UniProt O14763); assay: cell-based assay, 10 μg/ml M412, anti-mouse IgG Fc-HRP, isotype control subtracted; colon cancer line HT-29
人肿瘤细胞上的TR-2 (human) [26] = target: 人肿瘤细胞上的TR-2 (human) (UniProt O14763); assay: cell-based assay, 10 μg/ml M412, anti-mouse IgG Fc-HRP, isotype control subtracted; prostate cancer line DU 145
人肿瘤细胞上的TR-2 (human) [27] = target: 人肿瘤细胞上的TR-2 (human) (UniProt O14763); assay: cell-based assay, 10 μg/ml M412, anti-mouse IgG Fc-HRP, isotype control subtracted; breast cancer line MDA-MB-231
人肿瘤细胞上的TR-2 (human) [28] = target: 人肿瘤细胞上的TR-2 (human) (UniProt O14763); assay: cell-based assay, 10 μg/ml M412, anti-mouse IgG Fc-HRP, isotype control subtracted; kidney cancer line SN12C
人肿瘤细胞上的TR-2 (human) [29] = target: 人肿瘤细胞上的TR-2 (human) (UniProt O14763); assay: cell-based assay, 10 μg/ml M412, anti-mouse IgG Fc-HRP, isotype control subtracted; CNS cancer line U251
人肿瘤细胞上的TR-2 (human) [30] = target: 人肿瘤细胞上的TR-2 (human) (UniProt O14763); assay: cell-based assay, 10 μg/ml M412, anti-mouse IgG Fc-HRP, isotype control subtracted; CNS cancer line SF-295

Sequence of UniProt O14763 (O14763 56-440): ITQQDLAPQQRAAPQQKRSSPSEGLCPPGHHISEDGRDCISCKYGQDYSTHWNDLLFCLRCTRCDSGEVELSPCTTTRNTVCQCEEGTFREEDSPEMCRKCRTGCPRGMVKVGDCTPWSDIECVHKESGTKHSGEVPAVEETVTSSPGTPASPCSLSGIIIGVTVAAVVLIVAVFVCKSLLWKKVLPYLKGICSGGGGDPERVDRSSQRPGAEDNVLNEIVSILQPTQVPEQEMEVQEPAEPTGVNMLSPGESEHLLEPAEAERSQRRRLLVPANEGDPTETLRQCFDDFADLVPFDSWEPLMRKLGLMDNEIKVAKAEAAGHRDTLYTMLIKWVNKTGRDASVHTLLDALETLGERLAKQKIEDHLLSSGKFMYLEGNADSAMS

OD450nm (人肿瘤细胞上的TR-2 (human) [1]): 0.403 OD450
OD450nm (人肿瘤细胞上的TR-2 (human) [2]): 0.312 OD450
OD450nm (人肿瘤细胞上的TR-2 (human) [3]): 0.381 OD450
OD450nm (人肿瘤细胞上的TR-2 (human) [4]): 0.319 OD450
OD450nm (人肿瘤细胞上的TR-2 (human) [5]): 0.313 OD450
OD450nm (人肿瘤细胞上的TR-2 (human) [6]): 0.347 OD450
OD450nm (人肿瘤细胞上的TR-2 (human) [7]): 0.77 OD450
OD450nm (人肿瘤细胞上的TR-2 (human) [8]): 0.322 OD450
OD450nm (人肿瘤细胞上的TR-2 (human) [9]): 0.41 OD450
OD450nm (人肿瘤细胞上的TR-2 (human) [10]): 0.354 OD450
OD450nm (人肿瘤细胞上的TR-2 (human) [11]): 0.301 OD450
OD450nm (人肿瘤细胞上的TR-2 (human) [12]): 0.326 OD450
OD450nm (人肿瘤细胞上的TR-2 (human) [13]): 0.47 OD450
OD450nm (人肿瘤细胞上的TR-2 (human) [14]): 0.331 OD450
OD450nm (人肿瘤细胞上的TR-2 (human) [15]): 0.635 OD450
OD450nm (人肿瘤细胞上的TR-2 (human) [16]): 0.366 OD450
OD450nm (人肿瘤细胞上的TR-2 (human) [17]): 0.63 OD450
ED50 (细胞存活减少50%, 3H-胸苷掺入), COLO 205细胞 (人肿瘤细胞上的TR-2 (human) [18]): 1.85 µg/mL
ED50 (细胞存活减少50%, 3H-胸苷掺入), MDA-231细胞 (人肿瘤细胞上的TR-2 (human) [18]): 0.6 µg/mL
ED50 (细胞存活减少50%, 3H-胸苷掺入), WM35细胞 (人肿瘤细胞上的TR-2 (human) [18]): 1.85 µg/mL
ED50 (细胞存活减少50%, 3H-胸苷掺入), WM793细胞 (人肿瘤细胞上的TR-2 (human) [18]): 1.85 µg/mL
OD450nm (人肿瘤细胞上的TR-2 (human) [19]): 0.501 OD450
OD450nm (人肿瘤细胞上的TR-2 (human) [20]): 0.423 OD450
OD450nm (人肿瘤细胞上的TR-2 (human) [21]): 0.323 OD450
OD450nm (人肿瘤细胞上的TR-2 (human) [22]): 0.573 OD450
OD450nm (人肿瘤细胞上的TR-2 (human) [23]): 0.443 OD450
OD450nm (人肿瘤细胞上的TR-2 (human) [24]): 0.93 OD450
OD450nm (人肿瘤细胞上的TR-2 (human) [25]): 0.869 OD450
OD450nm (人肿瘤细胞上的TR-2 (human) [26]): 0.372 OD450
OD450nm (人肿瘤细胞上的TR-2 (human) [27]): 0.408 OD450
OD450nm (人肿瘤细胞上的TR-2 (human) [28]): 0.313 OD450
OD450nm (人肿瘤细胞上的TR-2 (human) [29]): 0.323 OD450
OD450nm (人肿瘤细胞上的TR-2 (human) [30]): 0.354 OD450
B1: 小鼠抗TR-2抗体M412 (antibody, mouse IgG1, V domains shown)
VH: KVQLQQSGTELVKPGASVKLSCKASGYTFTEYIIHWVKQRSGQGLEWIGWFYPGSGYIKYNEKFKDKATMTADKSSSTVYMELSRLTSEDSAVYFCTRHEEDGYYAAYWGQGTLVTVSA
VL: DIVMTQSHKFMSTSVGDRVSITCKASQDVSSAVAWYQQKPGQSPKLLIYWASTRHTGVPDRFTGSGSGTDYTLTISSVQAEDLALYYCQQHYSTPYTFGGGTKLEIKR
